According to paper doi:10.1101/2025.07.15.665015 (bioRxiv, 2025):

Tests used:
[1] = target: the molecule itself; test: single-molecule TIRF two-colour co-localisation
PKRΔKD = PKRΔKD (Homo sapiens, UniProt P19525 1-184, del185-551); test: single-molecule colocalization
PKR [2] = target: T1, PKR (Homo sapiens, UniProt P19525 1-551); test: single-molecule colocalization
PKR [3] = target: T1, PKR; test: single-molecule colocalization; remark: listed apart in the source
PKR [4] = target: T1, PKR; test: competition
PKR [5] = target: T1, PKR; test: competition; remark: listed apart in the source

B1: PKR(K-E) (K150E and K154E), Cy3-labelled (enzyme, human, UniProt P19525 1-551, looked up)
chain: MAGDLSAGFFMEELNTYRQKQGVVLKYQELPNSGPPHDRRFTFQVIIDGREFPEGEGRSKKEAKNAAAKLAVEILNKEKKAVSPLLLTTTNSSEGLSMGNYIGLINRIAQKKRLTVNYEQCASGVHGPEGFHYKCKMGQKEYSIGTGSTEQEAEQLAAKLAYLQILSEETSVKSDYLSSGSFATTCESQSNSLVTSTLASESSSEGDFSADTSEINSNSDSLNSSSLLMNGLRNNQRKAKRSLAPRFDLPDMKETKYTVDKRFGMDFKEIELIGSGGFGQVFKAKHRIDGKTYVIKRVKYNNEKAEREVKALAKLDHVNIVHYNGCWDGFDYDPETSDDSLESSDYDPENSKNSSRSKTKCLFIQMEFCDKGTLEQWIEKRRGEKLDKVLALELFEQITKGVDYIHSKKLIHRDLKPSNIFLVDTKQVKIGDFGLVTSLKNDGKRTRSKGTLRYMSPEQISSQDYGKEVDLYALGLILAELLHVCDTAFETSKFFTDLRDGIISDIFDKKEKTLLQKLLSKKPEDRPNTSEILRTLTVWKKSPEKNERHTC
modifications: Cy3 at the N-terminus, by sortase-mediated ligation of the peptide Cy3-CLPETGG
Question: Does B1 bind [1]?
Answer: binds

B2: 79-bp dsRNA (dsRNA)
RNA 1: GGGUUUUCCCAGUCACGACGUUGUAAAACGACGGCCAGUGAAUUCGAGCUCGGUACCCGGGGAUCCUCUAGAGUCGACC
RNA 2: GGUCGACUCUAGAGGAUCCCCGGGUACCGAGCUCGAAUUCACUGGCCGUCGUUUUACAACGUCGUGACUGGGAAAACCC
Question: Which results are given for B2?
Answer: binding result (PKRΔKD): binds; binding result (PKR [2]): binds

B3: mini-VA (structured_RNA)
RNA: GGGUAUCAUGGCGGACGACCGGGGUUCGAACCCCGGAUCCGGCCGUCCGCCGUGAUACCC
Question: Does B3 bind (PKR [3])?
Answer: binds

B4: 33-bp dsRNA (dsRNA)
RNA 1: GGGUUUUCCCAGUCACGACGUUGUAAAACGACG
RNA 2: CGUCGUUUUACAACGUCGUGACUGGGAAAACCC
Question: Does B4 bind (PKR [4])?
Answer: binds

B5: 25-bp dsRNA (dsRNA)
RNA 1: GGGUUUUCCCAGUCACGACGUUGUA
RNA 2: UACAACGUCGUGACUGGGAAAACCC
Question: Does B5 bind (PKR [5])?
Answer: binds
